# According to PMC5740674 (Proceedings of the National Academy of Sciences of the …, 2017):
# Square brackets hold non-standard residues; d marks the D form. Ends that are not written are not given here. pT = C[C@@H](OP(=O)(O)O)[C@H](N)C(=O)O
# T1: GST-Cnp3(fl), full-length Cnp3 (S. pombe, UniProt Q9USR9 1-643)
# T1 sequence (looked up): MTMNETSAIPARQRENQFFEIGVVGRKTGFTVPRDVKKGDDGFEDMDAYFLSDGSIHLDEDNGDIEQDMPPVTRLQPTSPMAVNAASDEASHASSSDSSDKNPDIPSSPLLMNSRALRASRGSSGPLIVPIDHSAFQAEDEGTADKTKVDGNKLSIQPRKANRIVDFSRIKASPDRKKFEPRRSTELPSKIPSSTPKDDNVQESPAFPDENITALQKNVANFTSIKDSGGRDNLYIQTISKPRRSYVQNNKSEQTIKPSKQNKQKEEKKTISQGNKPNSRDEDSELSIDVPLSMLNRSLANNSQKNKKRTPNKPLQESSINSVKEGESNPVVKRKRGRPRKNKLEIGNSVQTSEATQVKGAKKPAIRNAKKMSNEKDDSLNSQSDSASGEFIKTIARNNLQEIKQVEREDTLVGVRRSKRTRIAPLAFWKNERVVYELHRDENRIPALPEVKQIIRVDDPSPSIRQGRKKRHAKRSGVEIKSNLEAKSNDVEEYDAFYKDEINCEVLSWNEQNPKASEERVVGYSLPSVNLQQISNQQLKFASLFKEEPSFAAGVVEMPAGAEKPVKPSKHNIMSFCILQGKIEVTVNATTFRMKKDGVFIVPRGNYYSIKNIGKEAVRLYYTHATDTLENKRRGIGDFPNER
# T2: Dsn1^DD–Nsl1 subcomplex (Dsn1 S68D S77D) (S. pombe, UniProt Q9UUB5 1-329; Q9P6M3 1-210, S68D | S77D)
# T2 sequence (looked up) 1: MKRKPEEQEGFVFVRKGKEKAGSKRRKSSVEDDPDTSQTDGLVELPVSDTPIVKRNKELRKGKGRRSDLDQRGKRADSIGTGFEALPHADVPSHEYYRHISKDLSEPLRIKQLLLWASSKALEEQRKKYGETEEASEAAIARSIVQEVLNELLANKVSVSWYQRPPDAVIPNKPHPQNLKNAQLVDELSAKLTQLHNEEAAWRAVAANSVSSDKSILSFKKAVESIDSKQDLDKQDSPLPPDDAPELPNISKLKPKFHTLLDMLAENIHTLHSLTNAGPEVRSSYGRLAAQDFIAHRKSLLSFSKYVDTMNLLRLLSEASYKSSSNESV
# T2 sequence (looked up) 2: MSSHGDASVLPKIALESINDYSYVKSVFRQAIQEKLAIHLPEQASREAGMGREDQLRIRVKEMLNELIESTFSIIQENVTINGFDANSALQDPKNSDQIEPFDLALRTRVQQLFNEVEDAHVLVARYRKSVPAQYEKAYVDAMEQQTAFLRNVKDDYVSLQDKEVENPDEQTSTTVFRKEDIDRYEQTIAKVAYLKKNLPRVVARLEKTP
# T3: Mis12, full length (subunit of the Mis12–Nnf1 complex) (S. pombe, UniProt Q9Y738 1-259)
# T3 sequence (looked up): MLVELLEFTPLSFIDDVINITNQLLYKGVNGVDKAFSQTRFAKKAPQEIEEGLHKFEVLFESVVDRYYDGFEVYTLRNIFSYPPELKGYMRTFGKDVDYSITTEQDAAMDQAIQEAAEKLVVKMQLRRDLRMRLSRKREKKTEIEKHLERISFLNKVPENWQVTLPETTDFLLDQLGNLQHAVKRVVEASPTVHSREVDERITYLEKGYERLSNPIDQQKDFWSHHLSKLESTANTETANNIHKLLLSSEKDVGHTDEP
# B1: Mis12–Nnf1 complex (full-length Mis12 and full-length Nnf1) (complex, S. pombe)
# chain 1: MLVELLEFTPLSFIDDVINITNQLLYKGVNGVDKAFSQTRFAKKAPQEIEEGLHKFEVLFESVVDRYYDGFEVYTLRNIFSYPPELKGYMRTFGKDVDYSITTEQDAAMDQAIQEAAEKLVVKMQLRRDLRMRLSRKREKKTEIEKHLERISFLNKVPENWQVTLPETTDFLLDQLGNLQHAVKRVVEASPTVHSREVDERITYLEKGYERLSNPIDQQKDFWSHHLSKLESTANTETANNIHKLLLSSEKDVGHTDEP
# chain 2: MTSRKEQLDAFLSRTLSETIAHIPLEKFAQCFPSMKKGKVIAVIHQQLIEFFEKSCKQEYANLIKERDLNKKLDMLDECIHDAEFRKLHGESEVDISNKQPQEILKAHLYSHKRELLDKLNQDLLDIDKENEGLSTQIAGEEKATEDCISRMQSLIQKLEKTVYGMNEKNLAKEAHDTLNDLLPYIQNPSSTWTNALNEQGNIER
# Legend:
# [1] = molecular target: B1; experiment: ITC
# [2] = molecular target: B1; experiment: pull-down
# [3] = molecular target: T1, GST-Cnp3(fl), full-length Cnp3; experiment: pull-down
# [4] = molecular target: T2, Dsn1^DD–Nsl1 subcomplex (Dsn1 S68D S77D); experiment: SEC-MALS
# [5] = molecular target: B1; experiment: SEC-MALS
# [6] = molecular target: T3, Mis12, full length (subunit of the …); experiment: SEC-MALS
binder,measurement,setting,value
"RK[pT]GFTVPRDVKKGDDGFEDMDAYFLS (peptide, UniProt Q9USR9 26-52, looked up) [Cnp3(26–52)^pT28 peptide]",Kd,[1],92 µM
"GST-Cnp3(1–60)^WT (domain or fragment, S. pombe, UniProt Q9USR9 1-60, looked up) MTMNETSAIPARQRENQFFEIGVVGRKTGFTVPRDVKKGDDGFEDMDAYFLSDGSIHLDE",binding result,[2],binds
B1,binding result,[3],binds
same,binding result,[4],binds
"GST-Cnp3(1–155)^T28A (domain or fragment, S. pombe, UniProt Q9USR9 1-155, looked up) MTMNETSAIPARQRENQFFEIGVVGRKAGFTVPRDVKKGDDGFEDMDAYFLSDGSIHLDEDNGDIEQDMPPVTRLQPTSPMAVNAASDEASHASSSDSSDKNPDIPSSPLLMNSRALRASRGSSGPLIVPIDHSAFQAEDEGTADKTKVDGNKLS",binding result,[2],binds
"Mis12–Nnf1 complex with Mis12 R66A (complex, S. pombe) chain 1: MLVELLEFTPLSFIDDVINITNQLLYKGVNGVDKAFSQTRFAKKAPQEIEEGLHKFEVLFESVVDAYYDGFEVYTLRNIFSYPPELKGYMRTFGKDVDYSITTEQDAAMDQAIQEAAEKLVVKMQLRRDLRMRLSRKREKKTEIEKHLERISFLNKVPENWQVTLPETTDFLLDQLGNLQHAVKRVVEASPTVHSREVDERITYLEKGYERLSNPIDQQKDFWSHHLSKLESTANTETANNIHKLLLSSEKDVGHTDEP chain 2: MTSRKEQLDAFLSRTLSETIAHIPLEKFAQCFPSMKKGKVIAVIHQQLIEFFEKSCKQEYANLIKERDLNKKLDMLDECIHDAEFRKLHGESEVDISNKQPQEILKAHLYSHKRELLDKLNQDLLDIDKENEGLSTQIAGEEKATEDCISRMQSLIQKLEKTVYGMNEKNLAKEAHDTLNDLLPYIQNPSSTWTNALNEQGNIER",binding result,[3],binds
"Mis12–Nnf1 complex with Mis12 Y67A (complex, S. pombe) chain 1: MLVELLEFTPLSFIDDVINITNQLLYKGVNGVDKAFSQTRFAKKAPQEIEEGLHKFEVLFESVVDRAYDGFEVYTLRNIFSYPPELKGYMRTFGKDVDYSITTEQDAAMDQAIQEAAEKLVVKMQLRRDLRMRLSRKREKKTEIEKHLERISFLNKVPENWQVTLPETTDFLLDQLGNLQHAVKRVVEASPTVHSREVDERITYLEKGYERLSNPIDQQKDFWSHHLSKLESTANTETANNIHKLLLSSEKDVGHTDEP chain 2: MTSRKEQLDAFLSRTLSETIAHIPLEKFAQCFPSMKKGKVIAVIHQQLIEFFEKSCKQEYANLIKERDLNKKLDMLDECIHDAEFRKLHGESEVDISNKQPQEILKAHLYSHKRELLDKLNQDLLDIDKENEGLSTQIAGEEKATEDCISRMQSLIQKLEKTVYGMNEKNLAKEAHDTLNDLLPYIQNPSSTWTNALNEQGNIER",binding result,[3],binds
"GST-Cnp3(1–155) (domain or fragment, S. pombe, UniProt Q9USR9 1-155, looked up) MTMNETSAIPARQRENQFFEIGVVGRKTGFTVPRDVKKGDDGFEDMDAYFLSDGSIHLDEDNGDIEQDMPPVTRLQPTSPMAVNAASDEASHASSSDSSDKNPDIPSSPLLMNSRALRASRGSSGPLIVPIDHSAFQAEDEGTADKTKVDGNKLS",binding result,[2],binds
"RKTGFTVPRDVKKGDDGFEDMDAYF (domain or fragment, S. pombe, UniProt Q9USR9 26-50, looked up) [GST-Cnp3(26–50)]",binding result,[2],binds
"Dsn1–Nsl1 subcomplex (complex, S. pombe) chain 1: MKRKPEEQEGFVFVRKGKEKAGSKRRKSSVEDDPDTSQTDGLVELPVSDTPIVKRNKELRKGKGRRSSLDQRGKRASSIGTGFEALPHADVPSHEYYRHISKDLSEPLRIKQLLLWASSKALEEQRKKYGETEEASEAAIARSIVQEVLNELLANKVSVSWYQRPPDAVIPNKPHPQNLKNAQLVDELSAKLTQLHNEEAAWRAVAANSVSSDKSILSFKKAVESIDSKQDLDKQDSPLPPDDAPELPNISKLKPKFHTLLDMLAENIHTLHSLTNAGPEVRSSYGRLAAQDFIAHRKSLLSFSKYVDTMNLLRLLSEASYKSSSNESV chain 2: MSSHGDASVLPKIALESINDYSYVKSVFRQAIQEKLAIHLPEQASREAGMGREDQLRIRVKEMLNELIESTFSIIQENVTINGFDANSALQDPKNSDQIEPFDLALRTRVQQLFNEVEDAHVLVARYRKSVPAQYEKAYVDAMEQQTAFLRNVKDDYVSLQDKEVENPDEQTSTTVFRKEDIDRYEQTIAKVAYLKKNLPRVVARLEKTP",stoichiometry N,[5],1
"Nnf1, full length, untagged (subunit of the Mis12–Nnf1 complex) (natural protein, S. pombe, UniProt Q09858 1-205, looked up) MTSRKEQLDAFLSRTLSETIAHIPLEKFAQCFPSMKKGKVIAVIHQQLIEFFEKSCKQEYANLIKERDLNKKLDMLDECIHDAEFRKLHGESEVDISNKQPQEILKAHLYSHKRELLDKLNQDLLDIDKENEGLSTQIAGEEKATEDCISRMQSLIQKLEKTVYGMNEKNLAKEAHDTLNDLLPYIQNPSSTWTNALNEQGNIER",stoichiometry N,[6],1
"RKTGFTVPRDVKKGDDGFEDMDAYFLS (peptide, UniProt Q9USR9 26-52, looked up) [Cnp3(26–52) peptide]",Kd,[1],12.6 µM
